This passage reports binding results from paper PMC7595419.

The data set deals with SicA-His6 (Salmonella enterica serovar Typhimurium) (UniProt P69066). The data set can be described thus: EMSA.
SicA-His6 (Salmonella enterica serovar Typhimurium), sequence (P69066 whole entry): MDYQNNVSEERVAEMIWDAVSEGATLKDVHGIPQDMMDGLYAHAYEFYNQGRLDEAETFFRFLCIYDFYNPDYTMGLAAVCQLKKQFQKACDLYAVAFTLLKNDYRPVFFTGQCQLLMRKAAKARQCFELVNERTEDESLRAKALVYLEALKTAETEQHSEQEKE

On to “ATAGGATCCCGTTGTATAAGGTTTTTTGTAGGCTTTTAAAAGCCTCCTGGGTTTTTAGTGAAGCTGAGTGATAGAAGCTCTGTATTTGCATAGCGTTTTTAATATTCCTGAATAGGGGAGTGGGAACATTCAACAGGGTTAACAACCCTTTAAAAGGATGTGACTTTTATGCACCAGGAACTTTAAAAAAATGTCCTTTTTAATGAGGAAACGCTTCTGATCAGGCGGGGAGGCATCCTGACGTCCATACGTAGTGGCGATCATGGGGGAGATCGGTACATCAAATGTCTAGATAT (double strand) [sopB regulatory region (-200 to +79)]”, for which the binding entry is on record as “no binding”.
